Square brackets hold non-standard residues; d marks the D form. Primed or numbered codes have the meaning given here. Ends that are not written are not given here. Nal″ = Z is Nal (naphthylalanine; Nal = Z in the sequences is Nal; Aib = CC(C)(N)C(=O)O
Experiments:
[1] = Circular dichroism: degree of helicity; assay type: physicochemical; conditions: for He (%) TFE / He (%) free / He (%) mics / He (%) SUVs: percent helicity, 37° C.; for He (%) TFE: 5 μM peptide, 90% vol TFE; for He (%) free: unbound peptide, 5 μM in 5 mM phosphate buffer, pH 7.4; for He (%) mics: peptide-micelle complexes (1-myristoyl-2-hydroxy-sn-glycero-3-phosphatidyl choline, Ri=100); for He (%) SUVs: peptide-SUV complexes (20:1 EPC:Chol., Ri=50)
Procedure: Far UV circular dichroism spectra were recorded between 190 and 260 nm (in 0.5 nm or 0.2 nm increments) with a AVIV62DS spectrometer (AVIV Associates, Lakewood, N.J., USA) equipped with a thermoelectric cell holder and sample changer. The instrument was calibrated with (+)-10-[…]. Between one and three scans were collected for each sample, using 10 cm, 5 cm, 1 cm and 0.1 cm path length quartz Suprasil cells, respectively, for peptide concentrations of 10^−7 M to 10^−4 M. The bandwidth was fixed at 1.5 nm and the scan speed to 1s per wavelength step. The reported data are the mean of at least 2 or 3 independent measurements.
After background subtraction, spectra were converted to molar ellipticity (θ) per residue in […]. The peptide concentration was determined by amino acid analysis and also by absorption spectrometry on a Perkin Elmer Lambda 17 UV/Visible spectrophotometer when the peptide contained a chromophore (tryptophan, dansyl, naphthylalanine).
CD spectra were obtained with free, unbound peptide (5 μM in 5 mM phosphate buffer, pH 7.4); with peptide-SUV complexes (20:1 EPC:Chol., Ri=50); with peptide-micelle complexes (1-myristoyl-2-hydroxy-sn-glycero-3-phosphatidyl choline, Ri=100); and with free, unbound peptide in the presence of 2,2,2-trifluoroethanol (TFE) (5 μM peptide, 90% vol TFE).
The SUVs were obtained by dispersing the lipids (10 mM, 20:1 EPC:Chol., Avanti Polar Lipids, AL) in phosphate buffer (5 mM, pH 7.4) with bubbling N2 for 5 min., followed by sonication (1.5 hr.) in a bath sonicator. The homogeneity of the preparation was checked by FPLC.
The micelles were obtained by dispersing the lipid (6 mM 1-myristoyl-2-hydroxy-sn-glycero-3-phosphatidyl choline, Avanti Polar Lipids, AL) in phosphate buffer (5 mM, pH 7.4) with bubbling N2 for 5 min., followed by vortexing.
To obtain the peptide-SUV complexes, SUVs were added to the peptide (5 μM in 5 mM phosphate buffer, pH 7.4) at a phospholipid-peptide molar ratio (Ri) of […].
To obtain the peptide-micelle complexes, micelles were added to the peptide (5 μM in 5 mM phosphate buffer, pH 7.4) at a Ri of 100.
All spectra were recorded at 37° C. The stability of peptide 210 (SEQ ID NO:210) as a function of temperature (both free in buffer and in micelles) was determined by recording spectra at a series of different temperatures.
The degree of helicity of the peptides in the various conditions was determined from the mean residue ellipticity at 222 nm (Chen et al., 1974, Biochemistry 13:3350-3359) or by comparing the CD spectra obtained to reference spectra available on databases (16 helical reference spectra from Provencher & Glockner, 1981, Biochemistry 20:33-37; denatured protein reference spectra from Venyaminov et al., 1993, Anal. Biochem. 214:17-24) using the CONTIN curve-fitting algorithm version 2DP, CD-1 pack (August 1982) (Provencher, 1982, Comput. Phys. Commun. 27:213-227, 229-242). Acceptable fit was determined using the statistical analysis methodology provided by the CONTIN algorithm. The error of all methods was ±5% helicity.

[2] = Lipid binding by fluorescence spectroscopy; conditions: for I/Io: peptide 2 μM, 37° C.
Procedure: The lipid binding properties of the peptides synthesized in Section 6, supra, were tested by fluorescence measurements with labeled peptides, in the present case tryptophan (Trp or W) or naphthylalanine (Nal). The fluorescence spectra were recorded on a Fluoromax from Spex (Jobin-Yvon) equipped with a Xenon lamp of 150 W, two monochromators (excitation and emission), a photomultiplier R-928 for detection sensitive in the red up to 850 nm and a thermoelectric magnetic stirred cell holder. Quartz Suprasil cuvettes were used for measurements in the micromolar concentration range. A device of variable slits (from 0.4 to 5 nm) allows modulation of the incident and emitted intensities according to the concentration of peptide used. The reported values are in general the average of between 2 to 4 spectra. The peptide concentration is determined by absorption spectrometry on a Philips PU 8800 using the absorption band of the Trp (∈280 nm=5,550 M^−1 cm^−1 in Tris buffer) or the Nal (∈224 nm=92,770 M^−1 cm^−1 in methanol).
Fluorescence spectra of the peptides were recorded between 290 nm and 450 nm in Tris-HCl buffer (20 mM, pH=7.5), in the presence and absence of lipidic vesicles. The small unilamellar vesicles were formed after rehydration in buffer of the lyophilized phospholipids, dispersion and tip sonification under a N2 stream. The lipids used were either Egg PC/Chol. (20:1) or POPC/Chol. (20:1). The spectra were recorded at a peptide concentration of 2 μM and at a temperature of 37° C. The fluorescence reference standard in the case of Trp was N-acetyltryptophanylamide (NATA).
Lipid binding studies were done through progressive lipidic vesicle addition to the peptide in solution at 2 μM (slits:5 nm in excitation and 1.5 nm in emission). Dilution effects were taken into account for the fluorescence intensity determination. The lipid concentrations were varied from 10 to 600 μM and the molar ratio of lipid to peptide (Ri) was varied from 5 to 300. The wavelength of excitation was set at 280 nm for both Trp and Nal.
The data were directly recorded and treated by an IBM-PC linked to the spectrofluorimeter through the DM3000F software from Spex. The spectra were corrected by substraction of the solvent contribution and by application of a coefficient given by the constructor taking into account the variation of the photomultiplier response versus the wavelength.
The fluorescence spectra of the peptides were characterized by the wavelength at their maximum of fluorescence emission and by their quantum yield compared to NATA in the case of peptides labeled with a tryptophan. The process of binding to lipids was analyzed by calculating the shift of the wavelength at the maximum of fluorescence emission, (λmax), and the variation of the relative fluorescence intensity of emission versus the lipid concentration. The relative fluorescence intensity is defined as the following ratio: (I-I0)λmax/I0λmax. I and I0 are both measured at the (λmax) corresponding to the initial free state of the peptide i.e., without lipids. I is the intensity at a defined lipid to peptide ratio and I0 is the same parameter measured in absence of lipids. The absence of these variations is relevant to the absence of interactions of the peptides with the lipids.

[3] = EPC/Chol (20:1) small unilamellar vesicles

Row | Substance | He (%) TFE [1] [%] | He (%) free [1] [%] | He (%) mics [1] [%] | He (%) SUVs [1] [%] | also measured
1 | .klkgklaellenllerfldlvp [compound 107] | 77 | – | – | – | –
2 | EWLEAFYKKVLEKLKELF* (Ac-EWLEAFYKKVLEKLKELF-NH2) [compound 239, reference compound] | – | 44 | 49 | – | –
3 | GVLELFENLLERLLDALQKKLK [compound 145] | 58 | 55 | 51 | – | –
4 | PVLDLFRELLEELKQKLK [peptide 210] | – | – | – | – | stability of the α-helical structure as a function of temperature ([1]; temperature range of 5°-45° C., data not shown): completely stable
5 | PVLDLFRELLNELLEAZKQKLK (PVLDLFRELLNELLEA[Nal″]KQKLK) [peptide 10] | 71 | 60 | 87 | 70 | –
6 | PVLDLFRELLNELZEALKQKLK (PVLDLFRELLNEL[Nal]EALKQKLK) [compound 27] | 81 | 72 | 92 | 82 | –
7 | PVLDLFRELWEELKQKLK* (Ac-PVLDLFRELWEELKQKLK-NH2) [peptide 199] | – | – | – | – | lipid binding (burying of the tryptophan, fluorescence intensity exaltation) [2, 3]: binds very effectively; lipid to peptide molar ratio at which the burying of the tryptophan residue is maximal [2, 3]: about 100; I/Io ([2]; Lipid:Peptide Molar Ratio (Ri) 0): 0; λmax (nm) ([2]; Ri 5): 344 nm; I/Io ([2]; Ri 5): 8; λmax (nm) ([2]; Ri 10): 339 nm; I/Io ([2]; Ri 10): 8; λmax (nm) ([2]; Ri 30): 328 nm; I/Io ([2]; Ri 30): 18; I/Io ([2]; Ri 60): 22; λmax (nm) ([2]; Ri 100): 326 nm; I/Io ([2]; Ri 100): 27; λmax (nm) ([2]; Ri 200): 325 nm; I/Io ([2]; Ri 200): 41; λmax (nm) ([2]; maximum of tryptophan fluorescence emission, Ri 0 (in buffer, no lipid), 2 μM): 348 nm
8 | PVLDLFRWLLNEXLEALKQKLK (PVLDLFRWLLNE[Aib]LEALKQKLK) [compound 108] | – | – | – | 54 | –
9 | PVLDZFRELLNELLEALKQKLK (PVLD[Nal]FRELLNELLEALKQKLK) [compound 34] | 62 | 58 | 67 | 68 | –
10 | pVLELFENLLERLLDALQKKLK ([dP]VLELFENLLERLLDALQKKLK) [compound 144] | 95 | 89 | 88 | – | –
11 | pllellkellqellealkqklk ([dP][dL][dL][dE][dL][dL][dK][dE][dL][dL][dQ][dE][dL][dL][dE][dA][dL][dK][dQ][dK][dL][dK]) [compound 87] | 100 | 100 | – | – | –
12 | pvldefreklneXlealkqklk ([dP][dV][dL][dD][dE][dF][dR][dE][dK][dL][dN][dE][Aib][dL][dE][dA][dL][dK][dQ][dK][dL][dK]) [compound 44] | – | 20 | 86 | – | –
13 | pvldlfrellneXlealkqklk ([dP][dV][dL][dD][dL][dF][dR][dE][dL][dL][dN][dE][Aib][dL][dE][dA][dL][dK][dQ][dK][dL][dK]) [compound 96] | 81 | 52 | 85 | 63 | –
14 | pvldlfrellnellealkqklk [compound 100] | 98 | 83 | 92 | – | –

Source: patent US6734169B2, “Apolipoprotein A-I agonists and their use to treat dyslipidemic disorders” (priority 1997, dated 2004)
